Test results taken from paper doi:10.1101/2021.11.19.469356 (bioRxiv, 2021).
“And” between values parts separate entries of the source, which are not always exact repeats. Equal values may be shown once. Where no end group is shown, it is not given here.

T1: MED25 ACID (residues Leu389-Asn543), recombinant (human, UniProt Q71SY5 389-543)
T1 sequence: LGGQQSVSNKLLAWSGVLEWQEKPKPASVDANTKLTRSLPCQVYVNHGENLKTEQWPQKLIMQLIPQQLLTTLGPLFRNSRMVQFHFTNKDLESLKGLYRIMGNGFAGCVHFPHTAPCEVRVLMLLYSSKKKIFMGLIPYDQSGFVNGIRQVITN


Columns and labels:
[1] = target: T1, MED25 ACID (residues Leu389-Asn543), …; assay: NMR titration
[2] = target: T1, MED25 ACID (residues Leu389-Asn543), …; assay: pull-down

| Binder | Kd [1] | apparent Kd, second site of lower affinity (H1 face) [1] | binding result [2] |
| --- | --- | --- | --- |
| Ac-SDSTMTNYMNQLSELLGFDLNP [N-acetylated NS1 α3 peptide (RSV NS1 residues Ser118-Pro139)] | 17 ± 8 µM | 200 µM and 1000 µM | – |
| GST-ATF6αTAD (residues 1-150) (domain or fragment) MGEPAGVAGTMESPFSPGLFHRLDEDWDSALFAELGYFTDTDELQLEAANETYENNFDNLDFDLDLMPWESDIWDINNQICTVKDIKAEPQPLSPASSSYSVSSPRSVDSYSSTQHVPEELDLSSSSQMSPLSLYGENSNSLSSAEPLKE | – | – | binds |
